Results on six molecules are retold here after patent US20230218735A1 (Pfizer, published 2023).

For orientation: Kd means the free concentration of one partner at which half of the binding sites on the other are occupied at equilibrium, for simple one-to-one binding.

Test [1] deals with T1, genetically modified and chemically inactivated C. difficile toxoid A (Clostridium difficile, UniProt P16154 2-2710).
T1 construct: also called TxdA; the toxoid
In words: ITC. (In ITC the heat of successive injections is recorded.)

A further test addresses C. difficile toxin A (Clostridium difficile, UniProt P16154 1-2710). Description: cell-based or functional assay.

B1: hCDIFA-56 (antibody, V domains shown)
VH: QVQLVQSGAEVKKPGASVKVSCKVSGYTLPELSMHWVRQAPGKGLEWMGGFDPEDDDTIYAQKFQGRVTMTEDTSTDTAYLELSSLRSEDTAVYYCATDSSPLYNENYFGSAAFDVWGQGTTVTVSS
VL: AIRMTQSPSSLSASVGDRVTITCRASQGISTYLAWYQQKPGKAPKLLLYAASRLESGVPSRFSGSGSGTDYTLTINSLQPEDFATYYCQQYDRMPRTFGQGTKVEIKR
With B1, in test [1], the “DH” value was -10.3 kcal/mol, the dissociation constant (Kd) is 5 nM and the Stoichiometry was 0.78. Moreover, in the test with C. difficile toxin A, the “EC50 TcdA [RLU], toxin neutralization assay (TNA) on IMR90 cells” value (“EC50 TcdA [RLU]” for short) worked out at 111000 RLU.

B2: hCDIFA-46 (antibody, V domains shown)
VH: EVQLVESGGGLVQPGGSLRLSCAASGFTVSRNYMTWVRQAPGKGLEWVSVIYSGGSTYHADSVKGRFTISRDNSKNTLNLQMSSLRAEDTAVYYCARPCPGSSISCDYNMDVWGQGTTVTVSS
VL: QAVVTQPASVSGSPGQSITISCTGTSSDVGGYNYVSWYQQHPGKAPKLIIYEVSNRPSGVSNRFSGSKSGNTASLTISGLQAEDEADYYCTSYTSSSMIDVFGTGTKLTVLG
With B2, in test [1], the “DH” value is -11.3 kcal/mol, binding was put at a Kd of 3 nM and the Stoichiometry came out at 1. The “EC50 TcdA [RLU]” value in the test with C. difficile toxin A worked out at 1490 RLU.

B3: hCDIFA-7 (antibody, V domains shown)
VH: QVQLRESGPGLVKPSETLSLTCTVSGGSVSNYYWSWIRQPPGKGLEWIGYIYSSGTINFNPSLKGRVTISGDTSKNQFSLKLSSVTAADTAVYYCARSGKWALGAFDIWGQGTMVTVSS
VL: QSALTQPPSVSGAPGQRVTISCTGSSSNIGTGYDVHWYQQLPGKVPKLLIHGNGDRPSGVPDRFSASKSGTSASLAITGLQSEDEGDYYCQSYDNSLSGLVVFGGGTKLTVLG
As for B3, in test [1], the “DH” value was -13.5 kcal/mol, binding was characterised by a dissociation constant (Kd) of 118 nM and the Stoichiometry worked out at 2.94. Further, in the test with C. difficile toxin A, the “EC50 TcdA [RLU]” value amounted to 13300 RLU.

B4: hCDIFA-8 (antibody, V domains shown)
VH: QVQLVESGGGLVKPGGSLRLSCAASGFTFSTSSMNWVRQAPGKGLEWVSSINTSGDYIYYTDSVKGRFTISRDNAKNSLYLQMNSLRAEDTAVYYCARDLGTWRDYWGQGTLVTVSS
VL: QSVLTQPASVSGSPGQSITISCTGTSSDVGSYNLVSWYHQHPGKAPKLIIYEVSKRPSGVSNRFSGSKSGNTASLTISGLQAEDEADYYCYSYAGSSAFAWVFGTGTKLTVLG
Consider B4, for which, in test [1], the “DH” value was -6.9 kcal/mol, the equilibrium dissociation constant (Kd) came out at 20 nM and the Stoichiometry came to 2.02. Moreover, the “EC50 TcdA [RLU]” value in the test with C. difficile toxin A came to 35400 RLU.

B5: hCDIFA-11 (antibody, V domains shown)
VH: QVQLVQSATEMKKPGASVKVSCKASGYTFSDSYMHWVRQAPGQGLEWMGWINPDSGGTNYAQKFKGWVTMTRDTSINTVYMELRRLRSDDTAVYYCARDGGDYARHSLDYWGQGTLVTVSS
VL: DVVMTQSPGTLSLSPGERVTLSCRASQSVNSDYLVWYQQKPGQAPRLLIYGASSRATGIPDRFSGSGSGPDFTLTISRLEPEDVAVYYCQLYGGLFTFGQGTRLEIKR
With B5, in test [1], the “DH” value is -17.9 kcal/mol, the dissociation constant (Kd) is 4 nM and the Stoichiometry stood at 0.97. The “EC50 TcdA [RLU]” value with C. difficile toxin A amounted to 60 RLU.

B6: hCDIFA-45 (antibody, V domains shown)
VH: QVQLVQSGPEVRKPGTSVKFSCKASGFTFTSAAMQWVRQARGQRLEWIGWIVVDSGNTNYAQKFQERVTITRDMSTSTVYMELSSLRSEDTAMYYCAASRGIVGTRGLFDSWGQGTLVTVSS
VL: EIVLTQSPSSLSSSVGDRVTITCRASQSIRNYLNWYQQKPGKAPKLLIYGASSLQSGVPPRFSGSGFGTDFTLTISNLQPEDFASYSCQQTYSTPLTFGGGTKLEIKR
On to B6, for which, in test [1], the “DH” value is -17.6 kcal/mol, the equilibrium dissociation constant (Kd) was found to be 0.3 nM and the Stoichiometry is 0.98. Besides, in the test with C. difficile toxin A, the “EC50 TcdA [RLU]” value worked out at 1490 RLU.
